For data set [1], the target named is T1, I-CreI Q44, A68, N70, N75, P05725.
T1 chain: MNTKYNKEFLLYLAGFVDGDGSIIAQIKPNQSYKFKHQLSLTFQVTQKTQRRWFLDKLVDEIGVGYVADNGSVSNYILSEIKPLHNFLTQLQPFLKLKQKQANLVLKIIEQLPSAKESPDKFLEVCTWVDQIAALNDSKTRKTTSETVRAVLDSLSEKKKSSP

Data set [2] has as its target T2, I-CreI combinatorial mutant NNSRK/ASR, P05725.
T2 chain: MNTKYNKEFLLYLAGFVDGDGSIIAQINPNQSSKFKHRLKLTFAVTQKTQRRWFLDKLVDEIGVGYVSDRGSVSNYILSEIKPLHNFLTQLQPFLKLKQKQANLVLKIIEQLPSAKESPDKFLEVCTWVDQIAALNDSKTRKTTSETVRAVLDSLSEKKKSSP

Data set [3] concerns the target T3, I-CreI combinatorial mutant NNSRK/ARR, P05725.
T3 chain: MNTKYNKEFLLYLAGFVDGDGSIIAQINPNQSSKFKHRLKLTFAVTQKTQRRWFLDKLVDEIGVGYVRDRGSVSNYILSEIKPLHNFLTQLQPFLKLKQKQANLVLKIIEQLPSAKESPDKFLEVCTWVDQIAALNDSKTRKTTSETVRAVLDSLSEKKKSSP

Data set [4] concerns the molecule itself. The experiment in a line: far-UV CD, 1H-NMR and analytical ultracentrifugation of purified protein; self-association (homodimer). The method, then:
Novel I-CreI variants were expressed, purified, and analyzed for in vitro cleavage as reported previously (Arnould et al., precited). Circular dichroism (CD) measurements were performed on a Jasco J-810 spectropolarimeter using a 0.2 cm path length quartz cuvette. Equilibrium unfolding was induced increasing temperature at a rate of 1° C./min (using a programmable Peltier thermoelectric). Samples were prepared by dialysis against 25 mM potassium phosphate buffer, pH 7.5, at protein concentrations of 20 μM.
Finally, analysis of the structure and stability of this group of combinatorial mutants was performed using far-UV CD (FIG. 19d), ¹H-NMR and analytical ultracentrifugation. […] Thus, the two sets of residues that were mutated, K28, N30, Y33, Q38 and S40 on one hand, Q44, R68 and R70 on the other, define two relatively independent DNA binding sub-domains.

B1: I-CreI K44, T68, G70, N75 (protein)
chain: MNTKYNKEFLLYLAGFVDGDGSIIAQIKPNQSYKFKHQLSLTFKVTQKTQRRWFLDKLVDEIGVGYVTDGGSVSNYILSEIKPLHNFLTQLQPFLKLKQKQANLVLKIIEQLPSAKESPDKFLEVCTWVDQIAALNDSKTRKTTSETVRAVLDSLSEKKKSSP
B1: the “cleavage of chimeric DNA targets gtt/gcc and gtt/cct (yeast LacZ recombination assay, co-expression)” value in data set [1] was “co-expression of the K44, T68, G70, N75 (KTG) and Q44, A68, N70, N75 (QAN) mutants resulted in the cleavage of two chimeric targets, gtt/gcc and gtt/cct, that were not cleaved by either mutant alone”.

B2: I-CreI combinatorial mutant QNRQR/KEG (protein)
chain: MNTKYNKEFLLYLAGFVDGDGSIIAQIQPNQSRKFKHQLRLTFKVTQKTQRRWFLDKLVDEIGVGYVEDGGSVSNYILSEIKPLHNFLTQLQPFLKLKQKQANLVLKIIEQLPSAKESPDKFLEVCTWVDQIAALNDSKTRKTTSETVRAVLDSLSEKKKSSP
Turning to B2, the “cleavage of the chimeric site COMB1 (yeast LacZ recombination assay, co-expression)” value in data set [2] is given as “co-expression resulted in cleavage of the chimeric sequence COMB1 among all tested heterodimers (QNRQR/KEG×NNSRK/ASR named as the example with the weaker activity)”.

B3: I-CreI combinatorial mutant KNHQS/KEG (enzyme, UniProt P05725 1-163, looked up)
chain: MNTKYNKEFLLYLAGFVDGDGSIIAQIKPNQSHKFKHQLSLTFKVTQKTQRRWFLDKLVDEIGVGYVEDGGSVSNYILSEIKPLHNFLTQLQPFLKLKQKQANLVLKIIEQLPSAKESPDKFLEVCTWVDQIAALNDSKTRKTTSETVRAVLDSLSEKKKSSP
notes: The scaffold ORF has three additional C-terminal codons (AAD)
In the case of B3, in data set [3], the “cleavage of the chimeric site COMB1 (yeast LacZ recombination assay, co-expression)” value is recorded as “co-expression resulted in cleavage of the chimeric sequence COMB1 among all tested heterodimers (KNHQS/KEG×NNSRK/ARR named as the example with the higher level of activity)”. Also, in data set [4], the binding result is reported as “binds”.

B4: I-CreI combinatorial mutant KNHQS/KAS (enzyme, UniProt P05725 1-163, looked up)
chain: MNTKYNKEFLLYLAGFVDGDGSIIAQIKPNQSHKFKHQLSLTFKVTQKTQRRWFLDKLVDEIGVGYVADSGSVSNYILSEIKPLHNFLTQLQPFLKLKQKQANLVLKIIEQLPSAKESPDKFLEVCTWVDQIAALNDSKTRKTTSETVRAVLDSLSEKKKSSP
notes: as for B3
B4: the “in vitro cleavage of the COMB1 target by purified proteins incubated together” value in data set [3] is “Cleavage of the COMB1 target was also detected in vitro when the KNHQS/KAS and NNSRK/ARR purified proteins were incubated together with the COMB1 target in our conditions, while incubation of single protein did not give rise to any detectable cleavage activity. However, the cleavage efficiency was e”. For the same protein, in data set [4], the binding result was “binds”.

B5: I-CreI combinatorial mutant NNSRK/ASR (enzyme, UniProt P05725 1-163, looked up)
chain: MNTKYNKEFLLYLAGFVDGDGSIIAQINPNQSSKFKHRLKLTFAVTQKTQRRWFLDKLVDEIGVGYVSDRGSVSNYILSEIKPLHNFLTQLQPFLKLKQKQANLVLKIIEQLPSAKESPDKFLEVCTWVDQIAALNDSKTRKTTSETVRAVLDSLSEKKKSSP
notes: as for B3
In the case of B5, the binding result in data set [4] is “binds”.

B6: I-CreI combinatorial mutant NNSRK/ARR (enzyme, UniProt P05725 1-163, looked up)
chain: MNTKYNKEFLLYLAGFVDGDGSIIAQINPNQSSKFKHRLKLTFAVTQKTQRRWFLDKLVDEIGVGYVRDRGSVSNYILSEIKPLHNFLTQLQPFLKLKQKQANLVLKIIEQLPSAKESPDKFLEVCTWVDQIAALNDSKTRKTTSETVRAVLDSLSEKKKSSP
notes: as for B3
Regarding B6, the binding result in data set [4] is given as “binds”.

Source of the values: patent US20090220476A1 (CELLECTIS, published 2009).
